# ± gives the standard deviation of the averaged measurements.
# B1: library; a variant is named by its letters at N, in order (parent)
# chain: ACATTTGTTGATACAACCATAAAATGATAATTACACCCATAAATTGATAATTATCACACCCANNNNNNNNNNNNNNCTCTGATCATAGTCAGACCAACATTGCTACGACCCGTATTCGCACCGACAC
# Assays:
# [1] = variants of: B1; test: relative integration efficiency (T-RL orientation) vs wild-type transposon end (log2 (normalized fold change)); transposon end mutated: right end (5 bp flank + 75 bp right end); higher = more efficient transposition; conditions: with VchCAST RNA-guided transposition machinery (E. coli BL21(DE3) host, lacZ target)
# Method: (§1)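 Pooled, barcoded VchCAST (Tn6677) mini-transposon donor libraries; each variable transposon-end sequence sits in a fixed pDonor mini-transposon context (10-bp barcode and cargo not included). Left- or right-end libraries were co-transformed with pEffector (TniQ-Cascade, TnsABC, lacZ crRNA, T7, 0.1 mM IPTG) into E. coli BL21(DE3) and grown 18 h at 37 C. T-LR and T-RL junction amplicons were sequenced; output/input barcode fold change was normalised to the mean of four wild-type barcodes and log2-transformed. Two biological replicates; zero-count/undetected variants carry floor values (-10 / -15), censored here. Barcode uncoupling by PCR recombination adds noise.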
# [2] = variants of: B1; test: relative integration efficiency (T-LR orientation) vs wild-type transposon end (log2 (normalized fold change)); transposon end mutated: right end (5 bp flank + 75 bp right end); higher = more efficient transposition; conditions: with VchCAST RNA-guided transposition machinery (E. coli BL21(DE3) host, lacZ target)
# Method: as §1
Variant,relative integration efficiency (log2) [1],relative integration efficiency (log2) [2]
ACATTTGTTGATACAACCATAAAATGATAATTACCCCCATAAATTGATAATTATCACACCCATAAATTGATATTGCCTCTGATCATAGTCAGACCAACATTGCTACGACCCGTATTCGCACCGACAC [TAAATTGATATTGC A35C],-0.0746 ± 0.015,-0.0637 ± 0.3
ACATTTGTTGATACAACCATAAAATGATAATTACGCCCATAAATTGATAATTATCACACCCATAAATTGATATTGCCTCTGATCATAGTCAGACCAACATTGCTACGACCCGTATTCGCACCGACAC [TAAATTGATATTGC A35G],-0.559 ± 0.067,-0.531 ± 0.13
ACATTTGTTGATACAACCATAAAATGATAATTACTCCCATAAATTGATAATTATCACACCCATAAATTGATATTGCCTCTGATCATAGTCAGACCAACATTGCTACGACCCGTATTCGCACCGACAC [TAAATTGATATTGC A35T],-0.27 ± 0.02,-0.45 ± 0.076
ACATTTGTTGATACAACCATAAAATGATAATTACACCCCTAAATTGATAATTATCACACCCATAAATTGATATTGCCTCTGATCATAGTCAGACCAACATTGCTACGACCCGTATTCGCACCGACAC [TAAATTGATATTGC A39C],-1.23 ± 0.021,-1.05 ± 0.2
ACATTTGTTGATACAACCATAAAATGATAATTACACCCGTAAATTGATAATTATCACACCCATAAATTGATATTGCCTCTGATCATAGTCAGACCAACATTGCTACGACCCGTATTCGCACCGACAC [TAAATTGATATTGC A39G],-0.0861 ± 0.07,-0.449 ± 0.17
ACATTTGTTGATACAACCATAAAATGATAATTACACCCTTAAATTGATAATTATCACACCCATAAATTGATATTGCCTCTGATCATAGTCAGACCAACATTGCTACGACCCGTATTCGCACCGACAC [TAAATTGATATTGC A39T],-0.236 ± 0.061,-0.533 ± 0.43
ACATTTGTTGATACAACCATAAAATGATAATTACACCCATCAATTGATAATTATCACACCCATAAATTGATATTGCCTCTGATCATAGTCAGACCAACATTGCTACGACCCGTATTCGCACCGACAC [TAAATTGATATTGC A41C],-0.815 ± 0.047,-0.78 ± 0.23
ACATTTGTTGATACAACCATAAAATGATAATTACACCCATGAATTGATAATTATCACACCCATAAATTGATATTGCCTCTGATCATAGTCAGACCAACATTGCTACGACCCGTATTCGCACCGACAC [TAAATTGATATTGC A41G],-0.104 ± 0.45,-0.399 ± 1.1
ACATTTGTTGATACAACCATAAAATGATAATTACACCCATTAATTGATAATTATCACACCCATAAATTGATATTGCCTCTGATCATAGTCAGACCAACATTGCTACGACCCGTATTCGCACCGACAC [TAAATTGATATTGC A41T],-0.0667 ± 0.018,-0.148 ± 0.022
ACATTTGTTGATACAACCATAAAATGATAATTACACCCATACATTGATAATTATCACACCCATAAATTGATATTGCCTCTGATCATAGTCAGACCAACATTGCTACGACCCGTATTCGCACCGACAC [TAAATTGATATTGC A42C],-0.945 ± 0.052,-0.708 ± 0.35
ACATTTGTTGATACAACCATAAAATGATAATTACACCCATAGATTGATAATTATCACACCCATAAATTGATATTGCCTCTGATCATAGTCAGACCAACATTGCTACGACCCGTATTCGCACCGACAC [TAAATTGATATTGC A42G],-0.807 ± 0.11,-1.01 ± 0.016
ACATTTGTTGATACAACCATAAAATGATAATTACACCCATATATTGATAATTATCACACCCATAAATTGATATTGCCTCTGATCATAGTCAGACCAACATTGCTACGACCCGTATTCGCACCGACAC [TAAATTGATATTGC A42T],0.0512 ± 0.029,-0.0993 ± 0.22
ACATTTGTTGATACAACCATAAAATGATAATTACACCCATAACTTGATAATTATCACACCCATAAATTGATATTGCCTCTGATCATAGTCAGACCAACATTGCTACGACCCGTATTCGCACCGACAC [TAAATTGATATTGC A43C],-0.127 ± 0.027,-0.0895 ± 0.24
ACATTTGTTGATACAACCATAAAATGATAATTACACCCATAAGTTGATAATTATCACACCCATAAATTGATATTGCCTCTGATCATAGTCAGACCAACATTGCTACGACCCGTATTCGCACCGACAC [TAAATTGATATTGC A43G],-0.0412 ± 0.15,-0.246 ± 0.17
ACATTTGTTGATACAACCATAAAATGATAATTACACCCATAATTTGATAATTATCACACCCATAAATTGATATTGCCTCTGATCATAGTCAGACCAACATTGCTACGACCCGTATTCGCACCGACAC [TAAATTGATATTGC A43T],-0.127 ± 0.0053,-0.303 ± 0.3
ACATTTGTTGATACAACCATAAAATGATAATTACACCCATAAATTGCTAATTATCACACCCATAAATTGATATTGCCTCTGATCATAGTCAGACCAACATTGCTACGACCCGTATTCGCACCGACAC [TAAATTGATATTGC A47C],-0.409 ± 0.05,-0.216 ± 0.54
ACATTTGTTGATACAACCATAAAATGATAATTACACCCATAAATTGGTAATTATCACACCCATAAATTGATATTGCCTCTGATCATAGTCAGACCAACATTGCTACGACCCGTATTCGCACCGACAC [TAAATTGATATTGC A47G],-0.0921 ± 0.17,-0.453 ± 0.42
ACATTTGTTGATACAACCATAAAATGATAATTACACCCATAAATTGTTAATTATCACACCCATAAATTGATATTGCCTCTGATCATAGTCAGACCAACATTGCTACGACCCGTATTCGCACCGACAC [TAAATTGATATTGC A47T],-0.574 ± 0.2,-0.552 ± 0.16
ACATTTGTTGATACAACCATAAAATGATAATTACACCCATAAATTGATCATTATCACACCCATAAATTGATATTGCCTCTGATCATAGTCAGACCAACATTGCTACGACCCGTATTCGCACCGACAC [TAAATTGATATTGC A49C],-0.518 ± 0.15,-0.614 ± 0.38
ACATTTGTTGATACAACCATAAAATGATAATTACACCCATAAATTGATGATTATCACACCCATAAATTGATATTGCCTCTGATCATAGTCAGACCAACATTGCTACGACCCGTATTCGCACCGACAC [TAAATTGATATTGC A49G],-0.49 ± 0.084,-0.155 ± 0.12
ACATTTGTTGATACAACCATAAAATGATAATTACACCCATAAATTGATTATTATCACACCCATAAATTGATATTGCCTCTGATCATAGTCAGACCAACATTGCTACGACCCGTATTCGCACCGACAC [TAAATTGATATTGC A49T],-0.47 ± 0.16,0.117 ± 0.012
ACATTTGTTGATACAACCATAAAATGATAATTACACCCATAAATTGATACTTATCACACCCATAAATTGATATTGCCTCTGATCATAGTCAGACCAACATTGCTACGACCCGTATTCGCACCGACAC [TAAATTGATATTGC A50C],-0.321 ± 0.012,-0.213 ± 0.17
ACATTTGTTGATACAACCATAAAATGATAATTACACCCATAAATTGATAGTTATCACACCCATAAATTGATATTGCCTCTGATCATAGTCAGACCAACATTGCTACGACCCGTATTCGCACCGACAC [TAAATTGATATTGC A50G],-0.0471 ± 0.15,0.0313 ± 0.15

# — the supplement of paper PMC10201428
